The supplement of paper PMC11780869

Test system: Bacillus subtilis
Test: cleaved RNA product abundance (RNA/gDNA barcode ratio) relative to median wild-type variant (ratio to wild type); higher = more accumulation of the downstream cleavage product
Conditions: cleavage site: cggR-gapA (positions -7 to +36 mutated)
Outline: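 The B. subtilis chromosome carried reporter mRNAs, truncated aprE or tetM, containing barcoded RNase Y cleavage-site windows mutagenized using oligos with a 9% error rate. After growth in LB at 37°C from OD600 0.0003 to 0.3, cleaved RNA was gel-selected, reverse transcribed and barcode-sequenced next to genomic DNA barcodes, with UMI collapsing. Each construct's RNA:gDNA barcode ratio was scaled to the median construct with the unmutated site. That scaled ratio is reported as cleaved product abundance.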

[1] = experiment (reporter, strain, medium): exp 2b: truncated aprE reporter, strain BJT200
[2] = experiment (reporter, strain, medium): exp 4a: truncated aprE reporter, strain BJT201 with 2% xylose (RNase J1 expressed)
[3] = experiment (reporter, strain, medium): exp 6: tetM reporter, strain 168

Sequence	cleaved RNA product abundance [1]	cleaved RNA product abundance [2]	cleaved RNA product abundance [3]
ACAGACGAAGGAGCCGCAAAGAAGTTATTAAGGGATCAATAATCCCTCAATATAAATACCTCTCACTTATTTAAA	0.479	0.36	
ACAGACGAAGGAGCCGCAAAGAAGTTATTAAGGGATCAATAATCCCTCAATATAAATATCTCTCACTTATTTAAA	0.832	0.878	0.996
ACAGACGAAGGAGCCGCAAAGAAGTTATTAAGGGATCAATAATCCCTCAATATAAATCTCTCTCACTTATTTAAA		0.706	
ACAGACGAAGGAGCCGCAAAGAAGTTATTAAGGGATCAATAATCCCTCAATATAAATTTCTCTCACTTATTTAAA		0.645	
ACAGACGAAGGAGCCGCAAAGAAGTTATTAAGGGATCAATAATCCCTCAATATAATTATCTCTCACTTATTTAAA	0.468		
ACAGACGAAGGAGCCGCAAAGAAGTTATTAAGGGATCAATAATCCCTCAATATACATATCTCTCACTTATTTAAA		0.736	
ACAGACGAAGGAGCCGCAAAGAAGTTATTAAGGGATCAATAATCCCTCAATATAGATATCTCTCACTTATTTAAA	0.534		
ACAGACGAAGGAGCCGCAAAGAAGTTATTAAGGGATCAATAATCCCTCAATTTAAATATCTCTCACTTATTTAAA	0.197		
ACAGACGAAGGAGCCGCAAAGAAGTTATTAAGGGATCAATAATCCCTCACTATAAATATCTCTCACTTATTTAAA		0.224	
ACAGACGAAGGAGCCGCAAAGAAGTTATTAAGGGATCAATAATCCCTCATTATAAATATCTCTCACTTATTTAAA		0.213	
ACAGACGAAGGAGCCGCAAAGAAGTTATTAAGGGATCAATAATCCCTGAATATAAATATCTCTCACTTATTTAAA	0.512	0.61	
ACAGACGAAGGAGCCGCAAAGAAGTTATTAAGGGATCAATAATCCCTTAATATAAATATCTCTCACTTATTTAAA	1.02	0.486	
ACAGACGAAGGAGCCGCAAAGAAGTTATTAAGGGATCAATAATCCTTCAATATAAATATCTCTCACTTATTTAAA		0.353	
ACAGACGAAGGAGCCGCAAAGAAGTTATTAAGGGATCAATAATCGCTCAATATAAATATCTCTCACTTATTTAAA		0.0655	
ACAGACGAAGGAGCCGCAAAGAAGTTATTAAGGGATCAATAATCTATCAATATAAATATCTCTCACTTATTTAAA		0.209	
ACAGACGAAGGAGCCGCAAAGAAGTTATTAAGGGATCAATAATCTCTCAATATAAATATCTCTCACTTATTTAAA	0.312	0.342	
ACAGACGAAGGAGCCGCAAAGAAGTTATTAAGGGATCAATAATGCCTCAATATAAATATCTCTCACTTATTTAAA	0.0953	0.138	
ACAGACGAAGGAGCCGCAAAGAAGTTATTAAGGGATCAATAATTCCTCAATATAAATATCTCTCACTTATTTAAA		0.22	
ACAGACGAAGGAGCCGCAAAGAAGTTATTAAGGGATCAATACTCCCTCAATATAAATATCTCTCACTTATTTAAA		0.579	
ACAGACGAAGGAGCCGCAAAGAAGTTATTAAGGGATCAATAGTCCCTCAATATAAATATCTCTCACTTATTTAAA		0.828	
ACAGACGAAGGAGCCGCAAAGAAGTTATTAAGGGATCAATATTCCCTCAATATAAATATCTCTCACTTATTTAAA	0.709		
ACAGACGAAGGAGCCGCAAAGAAGTTATTAAGGGATCAATGATCCCTCAATATAAATATCTCTCACTTATTTAAA		1.15	
ACAGACGAAGGAGCCGCAAAGAAGTTATTAAGGGATCAATTATCCCTCAATATAAATATCTCTCACTTATTTAAA		1.23	
ACAGACGAAGGAGCCGCAAAGAAGTTATTAAGGGATCACTAATCCCTCAATATAAATATCTCTCACTTATTTAAA		1.19	
ACAGACGAAGGAGCCGCAAAGAAGTTATTAAGGGATCATTAATCCCTCAATATAAATATCTCTCACTTATTTAAA		1.08	
ACAGACGAAGGAGCCGCAAAGAAGTTATTAAGGGATCCATAATCCCTCAATATAAATATCTCTCACTTATTTAAA		0.481	
ACAGACGAAGGAGCCGCAAAGAAGTTATTAAGGGATCGATAATCCCTCAATATAAATATCTCTCACTTATTTAAA	0.652	0.722	

Sequence	cleaved RNA product abundance [1]	cleaved RNA product abundance [2]	cleaved RNA product abundance [3]
ACAGACGAAGGAGCCGCAAAGAAGTTATTAAGGGATCTATAATCCCTCAATATAAATATCTCTCACTTATTTAAA		0.87	
ACAGACGAAGGAGCCGCAAAGAAGTTATTAAGGGATGAAAAAACCCTCAATATAAATATCTCTCACTTATTTAAA	0.411	0.642	
ACAGACGAAGGAGCCGCAAAGAAGTTATTAAGGGATGAAAAACCCCTCAATATAAATATCTCTCACTTATTTAAA	0.477	0.485	
ACAGACGAAGGAGCCGCAAAGAAGTTATTAAGGGATGAAAAATACCTCAATATAAATATCTCTCACTTATTTAAA	0.114	0.169	
ACAGACGAAGGAGCCGCAAAGAAGTTATTAAGGGATGAAAAATCACTCAATATAAATATCTCTCACTTATTTAAA	0.113	0.101	
ACAGACGAAGGAGCCGCAAAGAAGTTATTAAGGGATGAAAAATCCATCAATATAAATATCTCTCACTTATTTAAA	0.141	0.223	
ACAGACGAAGGAGCCGCAAAGAAGTTATTAAGGGATGAAAAATCCCCCAATATAAATATCTCTCACTTATTTAAA		0.184	
ACAGACGAAGGAGCCGCAAAGAAGTTATTAAGGGATGAAAAATCCCTAAATATAAATATCTCTCACTTATTTAAA	0.499	0.445	
ACAGACGAAGGAGCCGCAAAGAAGTTATTAAGGGATGAAAAATCCCTCAAAATAAATATCTCTCACTTATTTAAA		0.333	
ACAGACGAAGGAGCCGCAAAGAAGTTATTAAGGGATGAAAAATCCCTCAAGATAAATATCTCTCACTTATTTAAA	0.159	0.314	
ACAGACGAAGGAGCCGCAAAGAAGTTATTAAGGGATGAAAAATCCCTCAATAAAAATATCTCTCACTTATTTAAA		0.217	
ACAGACGAAGGAGCCGCAAAGAAGTTATTAAGGGATGAAAAATCCCTCAATAGAAATATCTCTCACTTATTTAAA		0.192	
ACAGACGAAGGAGCCGCAAAGAAGTTATTAAGGGATGAAAAATCCCTCAATATAAAAATCTCTCACTTATTTAAA	0.798	0.692	
ACAGACGAAGGAGCCGCAAAGAAGTTATTAAGGGATGAAAAATCCCTCAATATAAACATCTCTCACTTATTTAAA		0.772	
ACAGACGAAGGAGCCGCAAAGAAGTTATTAAGGGATGAAAAATCCCTCAATATAAATAACTCTCACTTATTTAAA		0.632	
ACAGACGAAGGAGCCGCAAAGAAGTTATTAAGGGATGAAAAATCCCTCAATATAAATAGCTCTCACTTATTTAAA		0.554	
ACAGACGAAGGAGCCGCAAAGAAGTTATTAAGGGATGAAAAATCCCTCAATATAAATATCTCTCACTTATTTAAA	0.78	0.781	0.985
ACAGACGAAGGAGCCGCAAAGAAGTTATTAAGGGATGAAAAATCCCTCAATATAAATGTCTCTCACTTATTTAAA	0.304	0.622	
ACAGACGAAGGAGCCGCAAAGAAGTTATTAAGGGATGAAAAATCCCTCAATATAATTATCTCTCACTTATTTAAA		0.171	
ACAGACGAAGGAGCCGCAAAGAAGTTATTAAGGGATGAAAAATCCCTCAATATAGATATCTCTCACTTATTTAAA	0.277		
ACAGACGAAGGAGCCGCAAAGAAGTTATTAAGGGATGAAAAATCCCTCAATATCAATATCTCTCACTTATTTAAA		0.0918	
ACAGACGAAGGAGCCGCAAAGAAGTTATTAAGGGATGAAAAATCCCTCAATATGAATATCTCTCACTTATTTAAA		0.151	
ACAGACGAAGGAGCCGCAAAGAAGTTATTAAGGGATGAAAAATCCCTCAATATTAATATCTCTCACTTATTTAAA	0.199	0.157	
ACAGACGAAGGAGCCGCAAAGAAGTTATTAAGGGATGAAAAATCCCTCAATTTAAATATCTCTCACTTATTTAAA	0.2		
ACAGACGAAGGAGCCGCAAAGAAGTTATTAAGGGATGAAAAATCCCTCACTATAAATATCTCTCACTTATTTAAA	0.161		
ACAGACGAAGGAGCCGCAAAGAAGTTATTAAGGGATGAAAAATCCCTCAGTATAAATATCTCTCACTTATTTAAA		0.224	
